The assay has as its target T1, recombinant PKCζ (human, UniProt Q05513 1-592).
T1 construct: also called rec; PKCζ
T1 sequence (looked up): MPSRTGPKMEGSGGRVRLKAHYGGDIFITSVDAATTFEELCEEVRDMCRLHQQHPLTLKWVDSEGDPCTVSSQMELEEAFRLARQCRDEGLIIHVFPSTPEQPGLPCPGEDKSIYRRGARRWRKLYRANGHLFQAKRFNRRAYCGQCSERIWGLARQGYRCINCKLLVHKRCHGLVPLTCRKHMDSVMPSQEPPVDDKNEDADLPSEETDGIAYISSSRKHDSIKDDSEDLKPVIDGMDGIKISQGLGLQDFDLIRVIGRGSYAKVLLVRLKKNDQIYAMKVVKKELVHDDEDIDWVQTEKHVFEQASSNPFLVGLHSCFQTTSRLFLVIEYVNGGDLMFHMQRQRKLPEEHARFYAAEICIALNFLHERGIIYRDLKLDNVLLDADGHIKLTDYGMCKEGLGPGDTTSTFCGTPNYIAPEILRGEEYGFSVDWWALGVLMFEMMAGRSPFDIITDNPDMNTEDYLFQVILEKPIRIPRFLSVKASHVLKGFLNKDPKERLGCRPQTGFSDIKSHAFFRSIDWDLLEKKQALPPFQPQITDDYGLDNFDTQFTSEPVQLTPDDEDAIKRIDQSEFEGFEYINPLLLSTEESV
In words: pull-down; GST fusion DNMT1 fragments on glutathione beads, pre-incubated with 100 μg/ml BSA; 10 ng recombinant PKCζ, 4°C, one hour; binding buffer 50 mM Tris pH 7.5, 28 μM ZnCl2, 1% Triton X-100, 220 mM NaCl, 10% glycerol; washes with 500 mM NaCl; blot with a PKCζ antibody. Conditions: both partners purified.

B1: GST fusion DNMT1 fragment 1 to 446 (domain or fragment, human, UniProt P26358 1-446, looked up)
chain: MPARTAPARVPTLAVPAISLPDDVRRRLKDLERDSLTEKECVKEKLNLLHEFLQTEIKNQLCDLETKLRKEELSEEGYLAKVKSLLNKDLSLENGAHAYNREVNGRLENGNQARSEARRVGMADANSPPKPLSKPRTPRRSKSDGEAKPEPSPSPRITRKSTRQTTITSHFAKGPAKRKPQEESERAKSDESIKEEDKDQDEKRRRVTSRERVARPLPAEEPERAKSGTRTEKEEERDEKEEKRLRSQTKEPTPKQKLKEEPDREARAGVQADEDEDGDEKDEKKHRSQPKDLAAKRRPEEKEPEKVNPQISDEKDEDEKEEKRRKTTPKEPTEKKMARAKTVMNSKTHPPKCIQCGQYLDDPDLKYGQHPPDAVDEPQMLTNEKLSIFDANESGFESYEALPQHKLTCFSVYCKHGHLCPIDTGLIEKNIELFFSGSAKPIYDDD
notes: DNA methyltransferase 1 (DNMT1), human, amino acids 1-446; also called N-terminal domain (amino acids 1-446) of DNMT1; source: E. coli BL21, purified on glutathione-Sepharose beads
On to B1, for which the binding result is “binds”.

B2: GST fusion DNMT1 fragment 1374 to 1616 (domain or fragment, human, UniProt P26358 1374-1616, looked up)
chain: LPEVRNGASALEISYNGEPQSWFQRQLRGAQYQPILRDHICKDMSALVAARMRHIPLAPGSDWRDLPNIEVRLSDGTMARKLRYTHHDRKNGRSSSGALRGVCSCVEAGKACDPAARQFNTLIPWCLPHTGNRHNHWAGLYGRLEWDGFFSTTVTNPEPMGKQGRVLHPEQHRVVSVRECARSQGFPDTYRLFGNILDKHRQVGNAVPPPLAKAIGLEIKLCMLAKARESASAKIKEEEAAKD
notes: source: E. coli BL21, purified on glutathione-Sepharose beads
For B2, the binding result was “binds”.

B3: GST fusion DNMT1 fragment 1081 to 1409 (domain or fragment, human, UniProt P26358 1081-1409, looked up)
chain: NRFYFLEAYNAKSKSFEDPPNHARSPGNKGKGKGKGKGKPKSQACEPSEPEIEIKLPKLRTLDVFSGCGGLSEGFHQAGISDTLWAIEMWDPAAQAFRLNNPGSTVFTEDCNILLKLVMAGETTNSRGQRLPQKGDVEMLCGGPPCQGFSGMNRFNSRTYSKFKNSLVVSFLSYCDYYRPRFFLLENVRNFVSFKRSMVLKLTLRCLVRMGYQCTFGVLQAGQYGVAQTRRRAIILAAAPGEKLPLFPEPLHVFAPRACQLSVVVDDKKFVSNITRLSSGPFRTITVRDTMSDLPEVRNGASALEISYNGEPQSWFQRQLRGAQYQPIL
notes: as for B2
Regarding B3, the binding result is reported as “binds”.

The values above are taken from PMC3118390, “PKC isoforms interact with and phosphorylate DNMT1” (BMC Biology, 2011).
